Assay results reported in the supplement of paper PMC12338614.
± gives the uncertainty stated by the source.

B1: library; numbered along this chain (parent)
chain: MEVVDPQQLGMFTEGELMSVGMDTFIHRIDSTEVIYQPRRKRAKLIGKYLMGDLLGEGSYGKVKEVLDSETLCRRAVKILKKKKLRRIPNGEANVKKEIQLLRRLRHKNVIQLVDVLYNEEKQKMYMVMEYCVCGMQEMLDSVPEKRFPVCQAHGYFCQLIDGLEYLHSQGIVHKDIKPGNLLLTTGGTLKISDLGVAEALHPFAADDTCRTSQGSPAFQPPEIANGLDTFSGFKVDIWSAGVTLYNITTGLYPFEGDNIYKLFENIGKGSYAIPGDCGPPLSDLLKGMLEYEPAKRFSIRQIRQHSWFRKKHPPAEAPVPIPPSPDTKDRWRSMTVVPYLEDLHGADEDEDLFDIEDDIIYTQDFTVPGQVPEEEASHNGQRRGLPKAVCMNGTEAAQLSTKSRAEGRAPNPARKACSASSKIRRLSACKQQ

Variants of: B1
Assay: STK11 functional score (HeLa growth suppression), rescaled enrichment; synonymous median = 1, nonsense median = 0 (normalised score)
Conditions: with HeLa; variant type: missense
Method: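 Deep mutational scan (TileSeq/POPCode codon randomisation) of full-length codon-optimised STK11 cDNA integrated at a Bxb1 landing pad (AAVS1) in HeLa cells. Restoring functional STK11 suppresses HeLa proliferation. Variant frequencies were measured by NGS before and after about two weeks of growth. The error-corrected enrichment log-ratio was rescaled so that synonymous median = 1 and nonsense median = 0, scores above 1 were compressed, and codon-level and three biological replicate scores were combined; error is the bootstrapped standard error. Scale: synonymous median = 1, nonsense median = 0; below 0.5 = damaging.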

Row | Variant | STK11 functional score
1 | R106P | 1.14 ± 0.42
2 | T336H | 1.59 ± 0.14
3 | T336K | 1.54 ± 0.18
4 | L117Y | 1.55 ± 0.19
5 | L117S | 0.291 ± 0.17
6 | R425N | 1.62 ± 0.25
7 | V133H | 1.47 ± 0.49
8 | R42W | 1.68 ± 0.52
9 | R42T | 0.779 ± 0.39
10 | V4W | 1.22 ± 0.089
11 | L285F | 0.988 ± 0.25
12 | L285I | 0.951 ± 0.32
13 | L54M | 1.1 ± 0.19
14 | V116P | 0.975 ± 0.1
15 | G163E | -0.0159 ± 0.21
16 | G288A | 0.95 ± 0.38
17 | G288V | 0.518 ± 0.45
18 | I360W | 0.807 ± 0.13
19 | P149S | 0.988 ± 0.13
20 | W308Y | -0.119 ± 0.11
21 | W308C | -0.11 ± 0.088
22 | W308L | -0.172 ± 0.075
23 | G58I | -0.159 ± 0.1
24 | G58V | -0.308 ± 0.081

Row | Variant | STK11 functional score
25 | Y36K | 1.23 ± 0.15
26 | S325W | 0.629 ± 0.13
27 | S325D | 1.09 ± 0.29
28 | S325A | 1.05 ± 0.5
29 | D330T | 1.59 ± 0.27
30 | D330N | 1.44 ± 0.48
31 | E375I | 1.59 ± 0.28
32 | E407D | 1.56 ± 0.25
33 | R86A | 1.26 ± 0.17
34 | R86I | 1.24 ± 0.1
35 | R405T | 1.24 ± 0.43
36 | L183F | 0.885 ± 0.55
37 | F354G | 1.09 ± 0.23
38 | Y131R | 0.218 ± 0.086
39 | F231Y | 0.865 ± 0.35
40 | F366G | 1.55 ± 0.13
41 | F366E | 1.6 ± 0.14
42 | V173F | 0.953 ± 0.33
43 | E145Q | 1.29 ± 0.22
44 | D237H | 1.53 ± 0.7
45 | S299N | 1.59 ± 0.16
46 | L427Y | 0.805 ± 0.33
47 | L427I | 1.36 ± 0.29
48 | R333F | 0.85 ± 0.49

Row | Variant | STK11 functional score
49 | K311S | 0.915 ± 0.3
50 | T189R | 1.41 ± 0.14
51 | T189I | 1.33 ± 0.82
52 | I248Y | 0.287 ± 0.15
53 | N94A | 0.173 ± 0.19
54 | N94I | 1.14 ± 0.21
55 | S169V | 0.428 ± 0.21
56 | S142Y | 1.13 ± 0.24
57 | A377V | 1.31 ± 0.34
58 | D258S | 1.42 ± 0.44
59 | D258L | 0.539 ± 0.12
60 | T185W | 0.387 ± 0.09
61 | T185C | 1.13 ± 0.22
62 | L80I | 0.964 ± 0.13
63 | R384V | 1.22 ± 0.16
64 | R384G | 1.28 ± 0.1
65 | N259H | 1.66 ± 0.14
66 | K296N | 1.12 ± 0.44
67 | N412E | 1.52 ± 0.17
68 | E138Y | 1.08 ± 0.077
69 | G91F | 0.906 ± 0.23
70 | M51L | 0.806 ± 0.15
71 | S232R | 1.39 ± 0.17
72 | Y362S | 1.25 ± 0.19

Row | Variant | STK11 functional score
73 | Y362P | 1.58 ± 0.14
74 | S59A | 1.19 ± 0.2
75 | D208W | 0.524 ± 0.58
76 | T244M | 1.38 ± 0.098
77 | T244E | -0.168 ± 0.099
78 | L101S | 1.43 ± 0.37
79 | L245T | -0.038 ± 0.1
80 | L245V | 0.345 ± 0.093
81 | L245R | -0.0758 ± 0.098
82 | E396W | 1.49 ± 0.21
83 | P221M | 0.39 ± 0.18
84 | P221D | 0.00575 ± 0.14
85 | L341R | 1.21 ± 0.14
86 | D53E | 0.779 ± 0.31
87 | C391M | 1.62 ± 0.29
88 | I361Q | 0.616 ± 0.2
89 | Y340K | 1.6 ± 0.14
90 | Y340C | 1.63 ± 0.13
91 | D115L | 1.19 ± 0.091
92 | I356Y | 1.12 ± 0.18
93 | G56P | 0.136 ± 0.092
94 | G56Q | -0.0947 ± 0.16
95 | D358A | 1.27 ± 0.15
96 | Y126V | 0.762 ± 0.16

Row | Variant | STK11 functional score
97 | C134L | 0.479 ± 0.083
98 | C134G | 0.564 ± 0.14
99 | S213Y | 1.34 ± 0.28
100 | K178M | 0.202 ± 0.1
101 | P275G | 1.14 ± 0.41
102 | V236F | 1.21 ± 0.17
103 | R297W | -0.193 ± 0.083
104 | E351H | 0.374 ± 0.082
105 | C151L | 0.508 ± 0.091
106 | K403Y | 1.59 ± 0.21
107 | P323M | 1.55 ± 0.15
108 | Q305V | 1.59 ± 0.25
109 | V243M | 0.378 ± 0.14
110 | V243H | -0.00535 ± 0.12
111 | Q123I | 0.581 ± 0.083
112 | L182E | -0.122 ± 0.31
113 | T367Y | 1.54 ± 0.2
114 | T367E | 1.5 ± 0.15
115 | T367P | 1.41 ± 0.41
116 | T367V | 1.58 ± 0.26
117 | T367K | 0.53 ± 0.42
118 | A225P | 1.22 ± 0.62
119 | P38A | 1.06 ± 0.29
120 | G257R | 0.694 ± 0.29

Row | Variant | STK11 functional score
121 | T24V | 0.875 ± 0.17
122 | N119S | 0.694 ± 0.11
123 | N119Y | 1.12 ± 0.39
124 | I424Y | 1.12 ± 0.26
125 | V390S | 1.5 ± 0.27
126 | V390T | 1.59 ± 0.23
127 | P144D | 1.46 ± 0.29
128 | I161V | 0.514 ± 0.39
129 | I161R | -0.0321 ± 0.14
130 | G215V | 0.788 ± 0.16
131 | E376C | 1.46 ± 0.15
132 | P373I | 1.31 ± 0.18
133 | E33P | 1.4 ± 0.33
134 | E33F | 0.855 ± 0.23
135 | E33S | 0.81 ± 0.15
136 | K83T | 0.156 ± 0.58
137 | N393A | 1.59 ± 0.23
138 | G188F | 0.918 ± 0.27
139 | T32G | 1.45 ± 0.23
140 | T32I | 0.842 ± 0.13
141 | T32S | 1.45 ± 0.21
142 | A406F | 1.4 ± 0.3
143 | S419I | 1.16 ± 0.27
144 | K81N | 1.37 ± 0.34

Row | Variant | STK11 functional score
145 | L201C | 1.12 ± 0.33
146 | L201E | 0.334 ± 0.27
147 | K269S | 1.41 ± 0.19
148 | L353P | 1.12 ± 0.72
149 | L353A | 1.56 ± 0.24
150 | Q159A | 1.13 ± 0.21
151 | Q159R | 1.03 ± 0.33
152 | A43T | 1.43 ± 0.16
153 | P314A | 1.13 ± 0.17
154 | P314E | 1.54 ± 0.15
155 | P314T | 1.54 ± 0.17
156 | L184F | 0.735 ± 0.078
157 | L184M | 0.45 ± 0.16
158 | V320Y | 1.55 ± 0.23
159 | R28A | 1.52 ± 0.34
160 | A273I | 1.46 ± 0.34
161 | E16Q | 1.16 ± 0.77
162 | E16F | 1.42 ± 0.42
163 | A417P | 1.2 ± 0.39
164 | A417L | 1.51 ± 0.15
165 | K62L | 1.35 ± 0.21
166 | K62C | 1.4 ± 0.35
167 | A397S | 1.26 ± 0.17
